Laboratory results: patent publication US20210122810A1 (Janssen / Centocor, published 2021)

Key:
[1] = biological target: T1, Tau peptide encompassing residues 299-318 (human); assay: isothermal titration calorimetry, peptide in cell titrated with IgG, PBS pH 7.4, one set of sites model
T1 construct: also called Tau protein (peptide)
T1 peptide: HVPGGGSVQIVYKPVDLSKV
Description: Affinities of the binding molecules of the present invention were determined using a Microcal Auto-iTC200 isothermal titration calorimeter (Malvern). Tau and tau antibodies were dialysed to PBS, pH 7.4 to ensure perfect buffer matching conditions. […] Data was fitted according to a one set of sites model using Microcal PEAQ-ITC Analysis Software (Malvern).

[2] = biological target: T1, Tau peptide encompassing residues …; assay: isothermal titration calorimetry (ratio of the KD values against CBTAU-27.1)

Kd [1]: 12.8 nM
fold improvement in affinity relative to CBTAU-27.1 [2]: 50 fold
B1: antibody of the present invention (antibody, V domains shown)
VH: QVQLVESGPEMRKPGESLKISCKTSGYIFSDYWTAWVRQLPGKGLQWMGIIYSGDSDTRYHPSVQGHVTMSTDSSLTTAYLQWSSLKASDTGIYYCARLDARVDAGWQLDSWGQGTLVTVSS
VL: DIQLTQSPDSLAVSLGERATINCKSSQSVFYRDNNKNYLAWYQHKSGQPPKLLFFWASSRESGVSDRFSGSGSGTDFTLTIDNLQAEDVALYYCQHYFNIPHNFGQGTKLEIK
notes: also called antibody according to the present invention
